Measurements as given in patent US20070224125A1 (APPLIED RESEARCH SYSTEMS ARS HOLDING N V, published 2007).

Target: T1, Bovine Serum Albumin (BSA) (bovine, UniProt P02769 25-607)
T1 construct: Negative control
Assay: proteins spotted on nitrocellulose filters, incubated with radiolabeled chemokine

T1 sequence (P02769 25-607 limits assumed): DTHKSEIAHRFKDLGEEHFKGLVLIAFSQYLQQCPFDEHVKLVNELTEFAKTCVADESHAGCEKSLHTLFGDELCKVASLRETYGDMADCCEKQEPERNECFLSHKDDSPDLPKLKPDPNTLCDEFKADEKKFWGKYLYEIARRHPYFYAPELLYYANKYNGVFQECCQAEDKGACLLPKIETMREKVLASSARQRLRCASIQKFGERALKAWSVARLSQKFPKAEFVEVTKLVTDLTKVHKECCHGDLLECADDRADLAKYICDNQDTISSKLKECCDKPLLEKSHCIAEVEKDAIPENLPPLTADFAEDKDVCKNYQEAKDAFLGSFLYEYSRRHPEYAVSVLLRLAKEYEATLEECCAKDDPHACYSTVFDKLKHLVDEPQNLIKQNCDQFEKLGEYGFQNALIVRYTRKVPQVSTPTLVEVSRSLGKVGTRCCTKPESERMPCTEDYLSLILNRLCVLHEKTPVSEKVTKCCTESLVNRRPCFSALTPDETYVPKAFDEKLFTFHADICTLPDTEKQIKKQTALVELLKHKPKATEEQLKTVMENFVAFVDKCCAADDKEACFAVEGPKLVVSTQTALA

Row | Binder | binding result
1 | CCL5/RANTES (ligand, UniProt P13501 24-91, looked up) SPYSSDTTPCCFAYIARPLPRAHIKEYFYTSGKCSNPAVVFVTRKNRQVCANPEKKWVREYINSLEMS | no binding
2 | CCL3/MIP-1alpha (ligand, UniProt P10147 24-92, looked up, also called CCL/MIP-1alpha; 125I-MIP-1alpha) SLAADTPTACCFSYTSRQIPQNFIADYFETSSQCSKPGVIFLTKRSRQVCADPSEEWVQKYVSDLELSA | no binding
